The record followed here is paper PMC9908306.

In this assay the target is human glyceraldehyde 3-phosphate dehydrogenase (GAPDH) (human) (UniProt P04406). The experiment in a line: cryo-EM structure; single particle analysis of GAPDH on EG-grid, 0.5 mg/ml; D2 symmetry applied.

human glyceraldehyde 3-phosphate dehydrogenase (GAPDH), P04406 1-335 (enzyme; other documents disagree on this pair), sequence (P04406 whole entry): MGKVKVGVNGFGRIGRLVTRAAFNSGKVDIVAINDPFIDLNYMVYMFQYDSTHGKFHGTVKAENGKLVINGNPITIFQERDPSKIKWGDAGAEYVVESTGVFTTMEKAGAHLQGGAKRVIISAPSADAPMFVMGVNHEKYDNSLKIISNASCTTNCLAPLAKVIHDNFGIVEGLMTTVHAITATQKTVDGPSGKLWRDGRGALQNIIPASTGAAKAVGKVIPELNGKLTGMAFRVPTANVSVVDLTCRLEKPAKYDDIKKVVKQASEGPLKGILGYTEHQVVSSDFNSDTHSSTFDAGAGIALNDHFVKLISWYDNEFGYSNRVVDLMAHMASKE

With “human glyceraldehyde 3-phosphate dehydrogenase (GAPDH), P04406 1-335 (enzyme; other documents disagree on this pair)”, the stoichiometry N (usually the number of molecules, sites or subunits per partner or assembly) came out at 4.
